Laboratory results: doi:10.1101/2024.12.30.629670
“And” between values parts separate entries of the source, which are not always exact repeats. Equal entries are not always repeated.

Target: AVRPM3^b2/c2 lacking the signal peptide, C-terminally FLAG- or HA-tagged (Blumeria graminis f.sp. tritici)
Experiment: cross-linking

In the case of “AVRPM3^b2/c2 lacking the signal peptide, C-terminally FLAG- or HA-tagged (natural protein)”, the stoichiometry N is reported as 2 and 3.
